Experimental data taken from IntAct's records for PubMed 31515488.

B1: NAD kinase (Homo sapiens), O95544 (parent)
chain: MEMEQEKMTMNKELSPDAAAYCCSACHGDETWSYNHPIRGRAKSRSLSASPALGSTKEFRRTRSLHGPCPVTTFGPKACVLQNPQTIMHIQDPASQRLTWNKSPKSVLVIKKMRDASLLQPFKELCTHLMEENMIVYVEKKVLEDPAIASDESFGAVKKKFCTFREDYDDISNQIDFIICLGGDGTLLYASSLFQGSVPPVMAFHLGSLGFLTPFSFENFQSQVTQVIEGNAAVVLRSRLKVRVVKELRGKKTAVHNGLGENGSQAAGLDMDVGKQAMQYQVLNEVVIDRGPSSYLSNVDVYLDGHLITTVQGDGVIVSTPTGSTAYAAAAGASMIHPNVPAIMITPICPHSLSFRPIVVPAGVELKIMLSPEARNTAWVSFDGRKRQEIRHGDSISITTSCYPLPSICVRDPVSDWFESLAQCLHWNVRKKQAHFEEEEEEEEEG
B2: Peroxisomal bifunctional enzyme (Homo sapiens), Q08426 (parent)
chain: MAEYTRLHNALALIRLRNPPVNAISTTLLRDIKEGLQKAVIDHTIKAIVICGAEGKFSAGADIRGFSAPRTFGLTLGHVVDEIQRNEKPVVAAIQGMAFGGGLELALGCHYRIAHAEAQVGLPEVTLGLLPGARGTQLLPRLTGVPAALDLITSGRRILADEALKLGILDKVVNSDPVEEAIRFAQRVSDQPLESRRLCNKPIQSLPNMDSIFSEALLKMRRQHPGCLAQEACVRAVQAAVQYPYEVGIKKEEELFLYLLQSGQARALQYAFFAERKANKWSTPSGASWKTASARPVSSVGVVGLGTMGRGIVISFARARIPVIAVDSDKNQLATANKMITSVLEKEASKMQQSGHPWSGPKPRLTSSVKELGGVDLVIEAVFEEMSLKKQVFAELSAVCKPEAFLCTNTSALDVDEIASSTDRPHLVIGTHFFSPAHVMKLLEVIPSQYSSPTTIATVMNLSKKIKKIGVVVGNCFGFVGNRMLNPYYNQAYFLLEEGSKPEEVDQVLEEFGFKMGPFRVSDLAGLDVGWKSRKGQGLTGPTLLPGTPARKRGNRRYCPIPDVLCELGRFGQKTGKGWYQYDKPLGRIHKPDPWLSKFLSRYRKTHHIEPRTISQDEILERCLYSLINEAFRILGEGIAASPEHIDVVYLHGYGWPRHKGGPMFYASTVGLPTVLEKLQKYYRQNPDIPQLEPSDYLKKLASQGNPPLKEWQSLAGSPSSKL
partner: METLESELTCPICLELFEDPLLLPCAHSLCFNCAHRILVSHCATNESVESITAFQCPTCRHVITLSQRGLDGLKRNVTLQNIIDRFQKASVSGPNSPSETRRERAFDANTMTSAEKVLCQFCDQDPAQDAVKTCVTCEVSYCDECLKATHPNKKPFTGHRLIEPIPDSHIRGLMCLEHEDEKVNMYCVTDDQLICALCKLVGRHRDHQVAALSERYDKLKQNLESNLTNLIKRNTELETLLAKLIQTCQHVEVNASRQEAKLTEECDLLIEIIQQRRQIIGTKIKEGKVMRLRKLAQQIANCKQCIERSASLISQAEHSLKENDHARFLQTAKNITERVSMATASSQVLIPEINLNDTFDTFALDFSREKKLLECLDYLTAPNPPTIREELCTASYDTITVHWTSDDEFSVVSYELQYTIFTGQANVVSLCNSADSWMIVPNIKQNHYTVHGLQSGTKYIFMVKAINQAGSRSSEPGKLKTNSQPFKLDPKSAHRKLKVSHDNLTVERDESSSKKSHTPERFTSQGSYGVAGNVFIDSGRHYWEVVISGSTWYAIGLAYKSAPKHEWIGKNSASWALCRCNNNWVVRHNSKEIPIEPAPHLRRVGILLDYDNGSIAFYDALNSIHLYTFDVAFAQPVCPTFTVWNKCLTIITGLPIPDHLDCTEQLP
B3: N-chimaerin (Homo sapiens), P15882 (parent)
chain: MALTLFDTDEYRPPVWKSYLYQLQQEAPHPRRITCTCEVENRPKYYGREFHGMISREAADQLLIVAEGSYLIRESQRQPGTYTLALRFGSQTRNFRLYYDGKHFVGEKRFESIHDLVTDGLITLYIETKAAEYIAKMTINPIYEHVGYTTLNREPAYKKHMPVLKETHDERDSTGQDGVSEKRLTSLVRRATLKENEQIPKYEKIHNFKVHTFRGPHWCEYCANFMWGLIAQGVKCADCGLNVHKQCSKMVPNDCKPDLKHVKKVYSCDLTTLVKAHTTKRPMVVDMCIREIESRGLNSEGLYRVSGFSDLIEDVKMAFDRDGEKADISVNMYEDINIITGALKLYFRDLPIPLITYDAYPKFIESAKIMDPDEQLETLHEALKLLPPAHCETLRYLMAHLKRVTLHEKENLMNAENLGIVFGPTLMRSPELDAMAALNDIRYQRLVVELLIKNEDILF
partner: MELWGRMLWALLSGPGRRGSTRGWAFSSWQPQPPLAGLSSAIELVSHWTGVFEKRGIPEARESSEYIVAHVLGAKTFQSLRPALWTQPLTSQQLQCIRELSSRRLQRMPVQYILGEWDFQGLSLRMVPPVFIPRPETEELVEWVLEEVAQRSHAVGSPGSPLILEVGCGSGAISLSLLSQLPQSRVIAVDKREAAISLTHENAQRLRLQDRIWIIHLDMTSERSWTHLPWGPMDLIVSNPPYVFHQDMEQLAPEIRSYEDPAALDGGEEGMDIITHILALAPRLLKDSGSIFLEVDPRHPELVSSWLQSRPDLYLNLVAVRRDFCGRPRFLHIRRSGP
B4: Four and a half LIM domains protein 2 (Homo sapiens), Q14192 (parent)
chain: MTERFDCHHCNESLFGKKYILREESPYCVVCFETLFANTCEECGKPIGCDCKDLSYKDRHWHEACFHCSQCRNSLVDKPFAAKEDQLLCTDCYSNEYSSKCQECKKTIMPGTRKMEYKGSSWHETCFICHRCQQPIGTKSFIPKDNQNFCVPCYEKQHAMQCVQCKKPITTGGVTYREQPWHKECFVCTACRKQLSGQRFTARDDFAYCLNCFCDLYAKKCAGCTNPISGLGGTKYISFEERQWHNDCFNCKKCSLSLVGRGFLTERDDILCPDCGKDI
partner: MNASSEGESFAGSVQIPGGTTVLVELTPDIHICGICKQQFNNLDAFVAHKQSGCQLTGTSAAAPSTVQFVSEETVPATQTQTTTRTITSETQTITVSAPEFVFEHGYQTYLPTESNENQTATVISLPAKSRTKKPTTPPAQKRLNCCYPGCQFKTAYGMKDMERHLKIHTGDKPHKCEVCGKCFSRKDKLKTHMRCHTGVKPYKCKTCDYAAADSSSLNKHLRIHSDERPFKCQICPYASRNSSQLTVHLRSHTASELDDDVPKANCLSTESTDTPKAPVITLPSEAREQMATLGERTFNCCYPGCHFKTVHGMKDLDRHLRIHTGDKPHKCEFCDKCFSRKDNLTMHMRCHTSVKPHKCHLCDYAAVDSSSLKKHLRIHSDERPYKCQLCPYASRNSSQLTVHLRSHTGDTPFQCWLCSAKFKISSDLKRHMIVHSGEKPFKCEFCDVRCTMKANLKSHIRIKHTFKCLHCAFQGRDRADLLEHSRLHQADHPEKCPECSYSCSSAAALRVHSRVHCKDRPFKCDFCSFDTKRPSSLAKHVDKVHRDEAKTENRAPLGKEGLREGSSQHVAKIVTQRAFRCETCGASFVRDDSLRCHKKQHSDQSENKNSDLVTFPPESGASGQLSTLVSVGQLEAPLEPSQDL
B5: Fanconi anemia group G protein (Homo sapiens), O15287 (parent)
chain: MSRQTTSVGSSCLDLWREKNDRLVRQAKVAQNSGLTLRRQQLAQDALEGLRGLLHSLQGLPAAVPVLPLELTVTCNFIILRASLAQGFTEDQAQDIQRSLERVLETQEQQGPRLEQGLRELWDSVLRASCLLPELLSALHRLVGLQAALWLSADRLGDLALLLETLNGSQSGASKDLLLLLKTWSPPAEELDAPLTLQDAQGLKDVLLTAFAYRQGLQELITGNPDKALSSLHEAASGLCPRPVLVQVYTALGSCHRKMGNPQRALLYLVAALKEGSAWGPPLLEASRLYQQLGDTTAELESLELLVEALNVPCSSKAPQFLIEVELLLPPPDLASPLHCGTQSQTKHILASRCLQTGRAGDAAEHYLDLLALLLDSSEPRFSPPPSPPGPCMPEVFLEAAVALIQAGRAQDALTLCEELLSRTSSLLPKMSRLWEDARKGTKELPYCPLWVSATHLLQGQAWVQLGAQKVAISEFSRCLELLFRATPEEKEQGAAFNCEQGCKSDAALQQLRAAALISRGLEWVASGQDTKALQDFLLSVQMCPGNRDTYFHLLQTLKRLDRRDEATALWWRLEAQTKGSHEDALWSLPLYLESYLSWIRPSDRDAFLEEFRTSLPKSCDL
B6: Notch homolog 2 N-terminal-like protein A (Homo sapiens), Q7Z3S9 (parent)
chain: MCVTYHNGTGYCKCPEGFLGEYCQHRDPCEKNRCQNGGTCVAQAMLGKATCRCASGFTGEDCQYSTSHPCFVSRPCLNGGTCHMLSRDTYECTCQVGFTGKECQWTDACLSHPCANGSTCTTVANQFSCKCLTGFTGQKCETDVNECDIPGHCQHGGTCLNLPGSYQCQCLQGFTGQYCDSLYVPCAPSPCVNGGTCRQTGDFTFECNCLPETVRRGTELWERDREVWNGKEHDEN
partner: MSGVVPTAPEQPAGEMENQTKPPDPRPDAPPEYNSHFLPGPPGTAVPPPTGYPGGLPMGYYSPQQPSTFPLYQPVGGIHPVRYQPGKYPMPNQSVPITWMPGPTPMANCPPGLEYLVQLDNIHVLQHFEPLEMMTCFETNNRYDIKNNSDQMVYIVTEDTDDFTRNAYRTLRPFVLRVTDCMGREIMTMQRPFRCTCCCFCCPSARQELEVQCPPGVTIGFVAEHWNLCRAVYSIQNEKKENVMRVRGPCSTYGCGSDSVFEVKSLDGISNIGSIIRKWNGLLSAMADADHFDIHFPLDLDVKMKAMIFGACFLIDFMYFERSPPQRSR
B7: Lymphokine-activated killer T-cell-originated protein kinase (Homo sapiens), Q96KB5 (parent)
chain: MEGISNFKTPSKLSEKKKSVLCSTPTINIPASPFMQKLGFGTGVNVYLMKRSPRGLSHSPWAVKKINPICNDHYRSVYQKRLMDEAKILKSLHHPNIVGYRAFTEANDGSLCLAMEYGGEKSLNDLIEERYKASQDPFPAAIILKVALNMARGLKYLHQEKKLLHGDIKSSNVVIKGDFETIKICDVGVSLPLDENMTVTDPEACYIGTEPWKPKEAVEENGVITDKADIFAFGLTLWEMMTLSIPHINLSNDDDDEDKTFDESDFDDEAYYAALGTRPPINMEELDESYQKVIELFSVCTNEDPKDRPSAAHIVEALETDV
partner: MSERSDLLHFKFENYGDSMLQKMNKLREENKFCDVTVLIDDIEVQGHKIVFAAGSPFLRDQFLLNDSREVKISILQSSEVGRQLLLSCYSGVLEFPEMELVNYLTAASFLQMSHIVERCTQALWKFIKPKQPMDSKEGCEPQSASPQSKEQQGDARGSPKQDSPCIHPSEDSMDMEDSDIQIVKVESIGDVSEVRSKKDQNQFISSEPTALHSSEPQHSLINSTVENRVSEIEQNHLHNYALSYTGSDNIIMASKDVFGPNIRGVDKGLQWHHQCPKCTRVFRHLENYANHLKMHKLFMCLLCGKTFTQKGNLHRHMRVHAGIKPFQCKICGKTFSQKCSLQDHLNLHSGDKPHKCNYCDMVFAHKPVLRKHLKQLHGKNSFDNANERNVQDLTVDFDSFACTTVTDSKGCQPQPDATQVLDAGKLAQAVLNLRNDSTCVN
B8: Nucleoporin p58/p45 (Homo sapiens), Q9BVL2 (parent)
chain: MSTGFSFGSGTLGSTTVAAGGTSTGGVFSFGTGASSNPSVGLNFGNLGSTSTPATTSAPSSGFGTGLFGSKPATGFTLGGTNTGIATTITTGLTLGTPATTSAATTGFSLGFNKPAASATPFALPITSTSASGLTLSSALTSTPAASTGFTLNNLGGTTATTTTASTGLSLGGALAGLGGSLFQSTNTGTSGLGQNALGLTLGTTAATSTAGNEGLGGIDFSSSSDKKSDKTGTRPEDSKALKDENLPPVICQDVENLQKFVKEQKQVQEEISRMSSKAMLKVQEDIKALKQLLSLAANGIQRNTLNIDKLKIETAQELKNAEIALRTQKTPPGLQHEYAAPADYFRILVQQFEVQLQQYRQQIEELENHLATQANNSHITPQDLSMAMQKIYQTFVALAAQLQSIHENVKVLKEQYLGYRKMFLGDAVDVFETRRAEAKKWQNTPRVTTGPTPFSTMPNAAAVAMAATLTQQQQPATGPQPSLGVSFGTPFGSGIGTGLQSSGLGSSNLGGFGTSSGFGCSTTGASTFGFGTTNKPSGSLSAGFGSSSTSGFNFSNPGITASAGLTFGVSNPASAGFGTGGQLLQLKKPPAGNKRGKR

Variants of: B1
Details: with sdcb1_human SDCBP

Variant | effect of a mutation on the interaction
R249W | with no effect

Variants of: B2
Details: with tri18_human MID1, O15344

Variant | effect of a mutation on the interaction
S703F | with no effect
I646T | disrupting interaction strength
R556G | with no effect
R483Q | with no effect
L715S | with no effect

Variants of: B3
Details: with hemk1_human HEMK1, Q9Y5R4

Variant | effect of a mutation on the interaction
D115N | disrupting interaction strength

Variants of: B4
Details: with zf64b_human ZFP64, Q9NTW7

Variant | effect of a mutation on the interaction
N95K | with no effect
A37S | with no effect

Variants of: B5
Details: with mbip1_human MBIP

Variant | effect of a mutation on the interaction
S7F | with no effect
T297I | with no effect

Variants of: B5
Details: with KRT15, P19012
Sequence of KRT15, P19012 (P19012 whole entry): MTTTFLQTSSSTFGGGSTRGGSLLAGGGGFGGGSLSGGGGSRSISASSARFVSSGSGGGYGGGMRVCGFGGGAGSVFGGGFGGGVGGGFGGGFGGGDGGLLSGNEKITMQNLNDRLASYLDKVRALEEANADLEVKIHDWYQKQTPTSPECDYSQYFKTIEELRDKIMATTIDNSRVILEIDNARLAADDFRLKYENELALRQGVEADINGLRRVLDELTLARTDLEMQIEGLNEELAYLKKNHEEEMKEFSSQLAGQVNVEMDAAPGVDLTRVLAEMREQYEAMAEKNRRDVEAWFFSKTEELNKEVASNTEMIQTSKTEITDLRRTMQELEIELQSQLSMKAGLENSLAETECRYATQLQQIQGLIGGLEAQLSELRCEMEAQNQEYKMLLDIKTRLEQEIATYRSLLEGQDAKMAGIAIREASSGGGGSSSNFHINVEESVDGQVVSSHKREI

Variant | effect of a mutation on the interaction
S7F | with no effect
T297I | with no effect

Variants of: B5
Details: with cenpr_human ITGB3BP

Variant | effect of a mutation on the interaction
S7F | with no effect
T297I | with no effect

Variants of: B5
Details: with KRT19, P08727
Sequence of KRT19, P08727 (P08727 whole entry): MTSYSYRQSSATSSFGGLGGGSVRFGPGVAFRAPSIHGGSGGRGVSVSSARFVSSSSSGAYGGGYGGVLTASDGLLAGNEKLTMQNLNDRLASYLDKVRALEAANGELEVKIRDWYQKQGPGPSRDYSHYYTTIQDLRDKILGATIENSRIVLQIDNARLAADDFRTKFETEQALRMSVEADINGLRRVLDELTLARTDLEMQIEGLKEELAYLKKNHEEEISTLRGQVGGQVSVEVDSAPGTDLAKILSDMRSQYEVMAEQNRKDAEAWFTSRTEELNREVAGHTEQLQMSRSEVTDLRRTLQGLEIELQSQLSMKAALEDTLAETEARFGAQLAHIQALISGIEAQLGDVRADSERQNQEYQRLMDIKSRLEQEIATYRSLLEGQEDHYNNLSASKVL

Variant | effect of a mutation on the interaction
S7F | with no effect
T297I | with no effect

Variants of: B6
Details: with pls4_human PLSCR4, Q9NRQ2

Variant | effect of a mutation on the interaction
R74Q | with no effect
A115T | with no effect

Variants of: B7
Details: with zbt26_human ZBTB26, Q9HCK0

Variant | effect of a mutation on the interaction
N107S | disrupting interaction strength
E220D | with no effect
K87M | with no effect

Variants of: B8
Details: with nup62_human NUP62, P37198
Sequence of nup62_human NUP62, P37198 (P37198 whole entry): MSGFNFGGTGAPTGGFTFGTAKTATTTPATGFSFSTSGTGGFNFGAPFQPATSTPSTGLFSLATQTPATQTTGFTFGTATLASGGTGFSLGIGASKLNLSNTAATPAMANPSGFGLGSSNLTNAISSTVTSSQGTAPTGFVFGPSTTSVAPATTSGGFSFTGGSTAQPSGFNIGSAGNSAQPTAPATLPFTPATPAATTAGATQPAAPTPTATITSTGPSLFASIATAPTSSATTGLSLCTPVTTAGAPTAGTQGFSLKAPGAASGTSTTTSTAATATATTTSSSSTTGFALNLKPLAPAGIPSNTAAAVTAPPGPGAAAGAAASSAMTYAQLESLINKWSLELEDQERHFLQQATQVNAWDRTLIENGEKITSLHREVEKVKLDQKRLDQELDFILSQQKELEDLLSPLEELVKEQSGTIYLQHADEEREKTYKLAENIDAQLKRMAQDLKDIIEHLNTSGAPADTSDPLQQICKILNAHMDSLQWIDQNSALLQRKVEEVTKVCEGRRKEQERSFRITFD

Variant | effect of a mutation on the interaction
A34T | with no effect

Variants of: B8
Details: with traf1_human TRAF1, Q13077
Sequence of traf1_human TRAF1, Q13077 (Q13077 whole entry): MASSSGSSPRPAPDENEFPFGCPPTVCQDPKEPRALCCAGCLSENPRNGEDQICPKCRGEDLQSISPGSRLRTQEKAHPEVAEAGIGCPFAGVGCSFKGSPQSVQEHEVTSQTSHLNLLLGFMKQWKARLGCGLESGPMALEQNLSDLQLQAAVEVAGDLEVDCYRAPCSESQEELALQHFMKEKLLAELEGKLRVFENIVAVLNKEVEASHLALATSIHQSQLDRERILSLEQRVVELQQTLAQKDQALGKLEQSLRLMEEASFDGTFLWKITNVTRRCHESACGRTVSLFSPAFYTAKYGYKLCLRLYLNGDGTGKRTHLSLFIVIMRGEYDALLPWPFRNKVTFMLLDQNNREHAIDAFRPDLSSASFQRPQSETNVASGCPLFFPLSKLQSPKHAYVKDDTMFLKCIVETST

Variant | effect of a mutation on the interaction
A34T | with no effect
